pKd: −log10 of the molar value.

Assay [1] has as its target human V158 FcγRIIIa extracellular region fused with GST (human) (UniProt P08637). Briefly: AlphaScreen competition. On the technique in general: In Alpha technology, singlet oxygen from a donor bead excites a nearby acceptor bead.
For assay [2], the target named is FcγRIIIa on human PBMCs, heterozygous V158/F158 (human) (UniProt P08637). Description: cell-based or functional assay.
The target of assay [3] is His-tagged V158 FcγRIIIa (human) (UniProt P08637). Briefly: SPR, His-tagged receptor immobilized, antibody flowed.
Assay [4] concerns the target F158 FcγRIIIa used in SPR (human) (UniProt P08637). Briefly: SPR. A general note: Surface plasmon resonance follows binding to a sensor surface in real time, without labels.
The target of assay [5] is FcγRIIIa on human PBMCs, homozygous F158/F158 (human) (UniProt P08637). Briefly: cell-based or functional assay.

Take alemtuzumab A298H (antibody): the Fold vs WT in assay [1] was 0.27 fold. Substance alemtuzumab S239D/I332E (antibody) registered an ADCC EC50 (DoHH-2 target cells, human PBMCs) in assay [2] of 3 ng/mL. Take alemtuzumab V264I/I332E (antibody): in assay [2], the ADCC EC50 (DoHH-2 target cells, human PBMCs) came out at 4 ng/mL. “alemtuzumab V264I/N297D/I332E (antibody)” yielded a Fold vs WT in assay [1] of 0.05 fold.

In general, pKd refers to the negative decadic logarithm of the Kd, by convention in mol/L. A higher pKd goes with a low Kd. Consider wild-type alemtuzumab (antibody), for which the results for the pKd in assay [3] and in assay [4] were 7.17 and 6.14, respectively. For the same substance, the ADCC EC50 (DoHH-2 target cells, human PBMCs) in assay [2] is 9.9 ng/mL. wild-type rituximab (antibody) returned an ADCC EC50 (WIL2-S target cells, human PBMCs) in assay [5] of 1.7 ng/mL.

(Values after patent EP2042517A1.)
